# Measured values: patent US20230312753A1 (IMMUNORIZON, published 2023)
# Experiments:
# NKG2A-CD94-ECD-hFc [1] = molecular target: T1, NKG2A-CD94-ECD-hFc (human, UniProt P26715 94-233; Q13241 32-179, limits assumed); test: ELISA on coated NKG2A-CD94-ECD-hFc (FIG. 43D), reference IM-1062
# T1 construct: extracellular domain; Lot 20200724002, 'provided by CP'; the two-chain layout here is only the reading of the name; also called human NKG2A (recombinant); NKG2A antigen; not shown: human Fc (hFc)
# Protocol: Methods: ELISA binding of Tribody/ProTribody antibody constructs to antigens: Dilute target protein (hCD3epsilon-His (cat # 10977-H08S, supplier Sino Biological); h5T4-His (cat# 19845-H08H, supplier Sino Biological); NKG2A-CD94-ECD-hFc, Lot:20200724002, provided by CP; or NKG2D-ECD-hFc, Lot: 20200413002, provided by CP) into PBS with final concentration of 0.01 µg/mL for hCD3epsilon-His, 0.3 µg/mL for h5T4-His, 1 µg/mL for NKG2A-CD94-ECD-hFc and 0.7 µg/mL for hNKG2D-ECD-hFc respectively and coat 100 µL/well on ELISA plate (cat: 9018, supplier Corning) respectively. Incubate O/N, 4° C. The plates were blocked with 250 µL 1% BSA in PBST for 1 hr at 37° C.Wash 4 times with PBST. All the washes are done using Biotek (Elx 405). All the Tribody set antibodies were diluted to 400 nM and make 4-fold serially dilutions (12 points, including 0 point). Add 100 µL/well diluted antibody constructs solution to plate, incubate for 1 hr at 37° C.Wash 4 times with PBST. Add 100 µL/well anti-human kappa light chain-HRP (1:10000), incubate for 0.5 hr at 37° C. Wash 4 times with PBST. 100 µL/well of TMB substrate was added and incubated at room temperature for 5 min. 100 µL/well of 1N HCl to terminate reaction. Plates were read using ELISA plate reader at 450 nm wavelength (instrunet SpectraMax M5e). […]
# [2] = molecular target: T2, NKG2A/CD94 on CHO cells (CHOK1-NKG2A-CD94) (human, UniProt P26715 1-233; Q13241 1-179, limits assumed); test: FACS on CHO cells over-expressing human NKG2A (FIG. 45F), reference IM-1062
# T2 construct: whole, on cells; also called CHO cells over-expressing NKG2A/CD94; CHO cell line over expressing ectopic NKG2A
# Protocol: Suspension cultured cells was harvested directly, and adherent cell were digested using TrypLE Express Enzyme (cat: 12604-013, supplier Life technologies). Centrifuge at 1000 rpm for 5 min and discard the supernatant. Cells are suspended at a concentration of 2×10⁶/mL in FACS buffer (2% FBS in PBS) and add 100 µL/well of cell suspension to the plate (cat #3799, supplier Corning). Centrifuging the plates at 2000 rpm for 5 min and discard the supernatant. Re-suspend the cells in 100 µL/well of Tribody set antibodies (400 nM start, 4-fold dilution, 8 point including 0 point) and incubate the plate for 60 min at 4° C. Centrifuge the plate at 2000 rpm, 4° C. for 5 min and discard supernatant. Then wash the cells 3 times with 170 µL FACS buffer. Re-suspend the cells at 100 µL/well with secondary antibody (goat anti-human Ig Fab-FITC, Cat # 2085-02, Southern biotech) with 1:400 dilution and incubate the plate for 30 min at 4° C. in dark. Centrifuge the plate at 2000 rpm, 4° C. for 5 min and discard supernatant. […] The fluorescence intensity of the staining was measured using flow cytometer (BD, FACSVerse). The geometric mean fluorescence intensity (GMFI; median fluorescence intensity (MFI)) of set antibodies staining was calculated (BD FACSuite software). Dose-response curves were generated and EC50s for thetrispecific variants binding were calculated using GraphPad Prism software.
# [3] = molecular target: T2, NKG2A/CD94 on CHO cells …; test: FACS on CHO cells over-expressing human NKG2A (FIG. 45F)
# Protocol: Then wash the cells 3 times with 170 µL FACS buffer. Re-suspend the cells at 100 µL/well with secondary antibody (goat anti-human Ig Fab-FITC, Cat # 2085-02, Southern biotech) with 1:400 dilution and incubate the plate for 30 min at 4° C. in dark. Centrifuge the plate at 2000 rpm, 4° C. for 5 min and discard supernatant. Then wash the cells 3 times with FACS buffer and analyze the sample with FACS verse. The fluorescence intensity of the staining was measured using flow cytometer (BD, FACSVerse). The geometric mean fluorescence intensity (GMFI; median fluorescence intensity (MFI)) of set antibodies staining was calculated (BD FACSuite software). Dose-response curves were generated and EC50s for thetrispecific variants binding were calculated using GraphPad Prism software.
# Results: The expressed trispecific constructs were analyzed for their binding to cells expressing endogenous CD3ε, 5T4 and NKG2A/NKG2D. […] (FIG. 45F).
# NKG2A-CD94-ECD-hFc [4] = molecular target: T1, NKG2A-CD94-ECD-hFc; test: ELISA on coated NKG2A-CD94-ECD-hFc (FIG. 43D)
# Protocol: Methods: ELISA binding of Tribody/ProTribody antibody constructs to antigens: Dilute target protein (hCD3epsilon-His (cat # 10977-H08S, supplier Sino Biological); h5T4-His (cat# 19845-H08H, supplier Sino Biological); NKG2A-CD94-ECD-hFc, Lot:20200724002, provided by CP; or NKG2D-ECD-hFc, Lot: 20200413002, provided by CP) into PBS with final concentration of 0.01 µg/mL for hCD3epsilon-His, 0.3 µg/mL for h5T4-His, 1 µg/mL for NKG2A-CD94-ECD-hFc and 0.7 µg/mL for hNKG2D-ECD-hFc respectively and coat 100 µL/well on ELISA plate (cat: 9018, supplier Corning) respectively. Incubate O/N, 4° C. The plates were blocked with 250 µL 1% BSA in PBST for 1 hr at 37° C.Wash 4 times with PBST. All the washes are done using Biotek (Elx 405). All the Tribody set antibodies were diluted to 400 nM and make 4-fold serially dilutions (12 points, including 0 point). Add 100 µL/well diluted antibody constructs solution to plate, incubate for 1 hr at 37° C.Wash 4 times with PBST. Add 100 µL/well anti-human kappa light chain-HRP (1:10000), incubate for 0.5 hr at 37° C. Wash 4 times with PBST. 100 µL/well of TMB substrate was added and incubated at room temperature for 5 min. 100 µL/well of 1N HCl to terminate reaction. Plates were read using ELISA plate reader at 450 nm wavelength (instrunet SpectraMax M5e). Data Analysis was performed using Graphpad prism 5 software by using nonlinear regression (curve fit): log (agonist) vs. response, agonist is antibody concentration (nM) and response is OD value.
# T2 sequence (P26715 whole entry, chain 1 of 2): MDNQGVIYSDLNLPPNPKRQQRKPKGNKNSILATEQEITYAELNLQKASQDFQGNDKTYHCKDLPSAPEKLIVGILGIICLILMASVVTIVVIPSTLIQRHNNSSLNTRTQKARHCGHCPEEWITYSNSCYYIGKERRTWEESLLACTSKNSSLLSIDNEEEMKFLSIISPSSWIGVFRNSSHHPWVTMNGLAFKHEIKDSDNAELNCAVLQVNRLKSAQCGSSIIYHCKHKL
# T2 sequence (Q13241 whole entry, chain 2 of 2): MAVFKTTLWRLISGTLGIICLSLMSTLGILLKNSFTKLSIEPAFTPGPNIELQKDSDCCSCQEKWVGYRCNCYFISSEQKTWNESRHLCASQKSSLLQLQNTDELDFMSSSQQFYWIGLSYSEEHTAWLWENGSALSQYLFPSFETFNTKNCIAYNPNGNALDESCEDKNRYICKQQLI
# T1 sequence (P26715 94-233 limits assumed, chain 1 of 2): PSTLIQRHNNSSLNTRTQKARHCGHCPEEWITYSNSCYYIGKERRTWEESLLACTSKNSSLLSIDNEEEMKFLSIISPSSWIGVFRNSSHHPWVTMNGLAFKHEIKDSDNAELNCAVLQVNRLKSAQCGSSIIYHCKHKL
# T1 sequence (Q13241 32-179 limits assumed, chain 2 of 2): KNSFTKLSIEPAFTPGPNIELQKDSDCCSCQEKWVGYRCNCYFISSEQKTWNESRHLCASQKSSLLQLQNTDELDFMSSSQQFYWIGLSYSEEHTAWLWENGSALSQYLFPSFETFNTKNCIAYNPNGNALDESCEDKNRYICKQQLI
binder,measurement,setting,value
"IM-1272 bi-NKG2A scFv Tribody (other, Tribody with anti-CD3 Fab, anti-5T4 scFv and two anti-NKG2A scFv in tandem) heavy: GGSGGSEVQLVESGGGLVQPGGSLRLSCAASGFTFNTYAMNWVRQAPGKGLEWVARIRSKYNNYATYYADSVKDRFTISRDDSKNTLYLQMNSLRAEDTAVYYCVRHGNFGNSYVSWFAYWGQGTMVTVSSASTKGPSVFPLAPSSKSTSGGTAALGCLVKDYFPEPVTVSWNSGALTSGVHTFPAVLQSSGLYSLSSVVTVPSSSLGTQTYICNVNHKPSNTKVDKRVEPKSCPPCGGGGSDIQMTQSPSSLSASVGDRVTITCRASENIYSYLAWYQQKPGKAPKLLIYNAKTLAEGVPSRFSGSGSGTDFTLTISSLQPEDFATYYCQHHYGTPRTFGGGTKVEIKGGGGSGGGGSGGGGSQVQLVQSGAEVKKPGASVKVSCKASGYTFTSYWMNWVRQAPGQGLEWMGRIDPYDSETHYAQKLQGRVTMTTDTSTSTAYMELRSLRSDDTAVYYCARGGYDFDVGTLYWFFDVWGQGTTVTVSSGGGGSDIQMTQSPSSLSASVGDRVTITCRASENIYSYLAWYQQKPGKAPKLLIYNAKTLAEGVPSRFSGSGSGTDFTLTISSLQPEDFATYYCQHHYGTPRTFGGGTKVEIKGGGGSGGGGSGGGGSQVQLVQSGAEVKKPGASVKVSCKASGYTFTSYWMNWVRQAPGQGLEWMGRIDPYDSETHYAQKLQGRVTMTTDTSTSTAYMELRSLRSDDTAVYYCARGGYDFDVGTLYWFFDVWGQGTTVTVSS light: GGSGGSQAVVTQEPSLTVSPGGTVTLTCRSSTGAVTTSNYANWVQQKPGQAPRGLIGGTNKRAPGTPARFSGSLLGGKAALTLSGVQPEDEAEYYCALWYSNLWVFGGGTKLTVLGQPKAAPSVTLFPPSSEELQANKATLVCLISDFYPGAVTVAWKADSSPVKAGVETTTPSKQSNNKYAASSYLSLTPEQWKSHRSYSCQVTHEGSTVEKTVAPTECPPCSGGGSDIQMTQSPSSLSASVGDRVTITCRASQGISNYLAWFQQKPGKAPKSLIYRANRLQSGVPSRFSGSGSGTDFTLTISSLQPEDVATYYCLQYDDFPWTFGQGTKLEIKGGGGSGGGGSGGGGSGGGGSQVQLVQSGAEVKKPGASVKVSCKASGYTFTSFWMHWVRQAPGQGLEWMGRIDPNRGGTEYNEKAKSRVTMTADKSTSTAYMELSSLRSEDTAVYYCAGGNPYYPMDYWGQGTTVTVSS",fold improved binding affinity against IM-1062,NKG2A-CD94-ECD-hFc [1],~60 fold
same,fold improved binding affinity against IM-1062,[2],~80 fold
same,EC50,[3],0.4 nM
same,EC50,NKG2A-CD94-ECD-hFc [4],0.2 nM
